Data: paper PMC11784139
Each block holds one substance with its values, some of them ahead of it.

What was measured:
[1] = test system: 6xHis-APR1 (Acinetobacter venetianus RAG-1); test: MST; conditions: EMSA: 5 mM Tris-HCl pH 7.5, 0.1 mM EDTA, 5 mM MgCl2, 10 mM KCl, 0.2 mM DTT, 30 C, 30 min, native PAGE in 0.5x TBE; MST: 50 mM PBS pH 7.2-7.4, temperature not …
[2] = test system: T1, 6xHis-APR1 (Acinetobacter venetianus RAG-1), ORF:d17a4b85; test: EMSA; conditions: EMSA: 5 mM Tris-HCl pH 7.5, 0.1 mM EDTA, 5 mM MgCl2, 10 mM KCl, 0.2 mM DTT, 30 C, 30 min, native PAGE in 0.5x TBE; MST: 50 mM PBS pH 7.2-7.4, temperature not …
T1 sequence: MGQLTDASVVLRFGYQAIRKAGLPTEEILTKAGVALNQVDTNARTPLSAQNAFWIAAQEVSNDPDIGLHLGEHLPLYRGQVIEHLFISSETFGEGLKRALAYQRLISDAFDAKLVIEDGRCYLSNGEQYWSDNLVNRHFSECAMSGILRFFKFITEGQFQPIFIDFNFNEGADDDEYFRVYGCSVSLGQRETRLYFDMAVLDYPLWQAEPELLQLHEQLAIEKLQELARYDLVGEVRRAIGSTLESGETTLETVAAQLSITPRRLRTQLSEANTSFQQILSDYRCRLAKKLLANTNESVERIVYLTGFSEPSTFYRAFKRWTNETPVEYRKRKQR

[3] = molecular target: 6 × His-tagged APR1 (AlmA Positive Regulator) (Acinetobacter venetianus RAG-1); test: cross-linking; 0.1% glutaraldehyde added to 5 µg purified 6 × His-tagged APR1 in 50 mM Tris-HCl (pH 8.0), 10% glycerol; 0.5–1 h at 30°C; analysed by SDS-PAGE

Substance: almA promoter
Kd [1]: 97.2 nM

Substance: AGCCTACCTGATGATCAAATTGGAAAGGCGCAAATTATAGTCAATTTATTTGAAATTTACAAGACGCTCTCTTAGCAAAGCTTGTACAGATGAATTGGAAAAAACTGTCAGACAATCCTCATTTTTTTTTAACAAAAGAAGCAGAATAGTGTTGTCAGTTTGGTCAATCAACGTTAATCTAAAATTATTGTTTATTGTCACAATAACGTATCTACAGGGAAGGGCACTGC (double strand) [apR1 promoter]
binding [2]: binds

stoichiometry N [3]: 2
Substance: 6 × His-tagged APR1 (AlmA Positive Regulator) (natural protein)
